± gives the uncertainty stated by the source.
Test: protein stability index of a GFP-peptide fusion (yeast GPS) (PSI 1-4); higher = more stable; sorted into four equal gates, so the index is relative within each strain
Procedure, shortened: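 The protein stability index of a peptide was calculated by multiplying its read frequency in each gate by that gate's number and adding the products. The peptides were tiled 17-residue stretches of yeast proteins, fused downstream of GFP on a Cherry-expressing plasmid and carried in yeast as a pooled library. Mid-log cultures in leucine-free medium were sorted into four equal gates by GFP/Cherry ratio, and each gate's plasmids were PCR-amplified and Illumina-sequenced.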

Sequence: IIDEIITQMRVNDEEEH [RPC82]
- protein stability index (doa10∆): 3 ± 0.084
- protein stability index (pdr5∆): 2.54 ± 0.071
- protein stability index (san1∆): 3.54 ± 0.12
- protein stability index (ubr1∆): 2.19 ± 0.079

Sequence: EGLIIDTDKLPIKNRTS [SIN4]
- protein stability index (doa10∆): 2.79 ± 0.11
- protein stability index (pdr5∆): 2.85 ± 0.086
- protein stability index (san1∆): 2.76 ± 0.074
- protein stability index (ubr1∆): 2.94 ± 0.063

Sequence: EKFSSFIESIVVDFKNK [SNF12]
- protein stability index (doa10∆): 2.69 ± 0.065
- protein stability index (pdr5∆): 2.84 ± 0.078
- protein stability index (san1∆): 2.74 ± 0.081
- protein stability index (ubr1∆): 2.77 ± 0.061

Sequence: FMRNGLLEGLNEKIEKR [UBP6]
- protein stability index (doa10∆): 2.99 ± 0.29
- protein stability index (pdr5∆): 2.87 ± 0.18
- protein stability index (san1∆): 3.21 ± 0.26
- protein stability index (ubr1∆): 3.55 ± 0.23

Sequence: NDIKLFVDDTNVYRVTV [PRP8]
- protein stability index (doa10∆): 2.58 ± 0.084
- protein stability index (pdr5∆): 2.63 ± 0.091
- protein stability index (san1∆): 2.43 ± 0.072
- protein stability index (ubr1∆): 2.57 ± 0.053

Sequence: TNENGETDDNIETVMTQ [SRB4]
- protein stability index (doa10∆): 2.79 ± 0.099
- protein stability index (pdr5∆): 2.53 ± 0.076
- protein stability index (san1∆): 2.44 ± 0.089
- protein stability index (ubr1∆): 2.5 ± 0.074

Sequence: DKNKLLLLAAQIVSYCS [SSN2]
- protein stability index (doa10∆): 1.97 ± 0.039
- protein stability index (pdr5∆): 1.66 ± 0.038
- protein stability index (san1∆): 2.05 ± 0.06
- protein stability index (ubr1∆): 1.74 ± 0.037

Sequence: LQSNSKLASTLEKISSS [SMC4]
- protein stability index (doa10∆): 2.79 ± 0.04
- protein stability index (pdr5∆): 2.52 ± 0.035
- protein stability index (san1∆): 2.54 ± 0.037
- protein stability index (ubr1∆): 2.53 ± 0.034

Sequence: FSHLAGGKIINKLGNDP [BRR2]
- protein stability index (doa10∆): 2.94 ± 0.19
- protein stability index (pdr5∆): 3.1 ± 0.19
- protein stability index (san1∆): 2.91 ± 0.085
- protein stability index (ubr1∆): 3.02 ± 0.077

Sequence: LYRSIESGEFDFDLFKE [YJL039C/NUP192]
- protein stability index (doa10∆): 3.1 ± 0.12
- protein stability index (pdr5∆): 2.93 ± 0.1
- protein stability index (san1∆): 3.01 ± 0.069
- protein stability index (ubr1∆): 2.91 ± 0.11

Sequence: NDTISEDILQGIFNLLN [NUT1]
- protein stability index (doa10∆): 2.38 ± 0.066
- protein stability index (pdr5∆): 2.32 ± 0.057
- protein stability index (san1∆): 2.13 ± 0.12
- protein stability index (ubr1∆): 2.6 ± 0.088

Sequence: SVNKNKRQAYAVSEKAG [RPL4A]
- protein stability index (pdr5∆): 1.69 ± 0.17
- protein stability index (ubr1∆): 3.29 ± 0.13

Sequence: DSQDYILSINAIDYEPE [SMC1]
- protein stability index (doa10∆): 3.25 ± 0.068
- protein stability index (pdr5∆): 3.06 ± 0.058
- protein stability index (san1∆): 3 ± 0.046
- protein stability index (ubr1∆): 3.02 ± 0.038

Sequence: IYEEVRAVLKSFLESVI [HHF1]
- protein stability index (doa10∆): 3 ± 0.21
- protein stability index (pdr5∆): 3.13 ± 0.15
- protein stability index (san1∆): 2.26 ± 0.15
- protein stability index (ubr1∆): 2.66 ± 0.097

Sequence: KISFNLRLKLFLYEILS [SRB8]
- protein stability index (doa10∆): 1.22 ± 0.066
- protein stability index (pdr5∆): 1.26 ± 0.063
- protein stability index (san1∆): 1.24 ± 0.092
- protein stability index (ubr1∆): 1.17 ± 0.048

Sequence: VLQNVFKLVSTPSSNSN [MED1]
- protein stability index (doa10∆): 1.44 ± 0.04
- protein stability index (pdr5∆): 1.67 ± 0.041
- protein stability index (san1∆): 1.5 ± 0.072
- protein stability index (ubr1∆): 1.36 ± 0.038

Sequence: KEASQEDDNNNVEKPSS [YLR335W/NUP2]
- protein stability index (doa10∆): 3.11 ± 0.088
- protein stability index (pdr5∆): 3.22 ± 0.071
- protein stability index (san1∆): 3.06 ± 0.053
- protein stability index (ubr1∆): 3.18 ± 0.066

Sequence: KMDMICRNINRKHRNAQ [DIS3]
- protein stability index (doa10∆): 2.2 ± 0.074
- protein stability index (pdr5∆): 2.5 ± 0.11
- protein stability index (san1∆): 2.37 ± 0.086
- protein stability index (ubr1∆): 3.12 ± 0.12

Sequence: KINSWDQVLVKGGEQIS [YJL041W/NSP1]
- protein stability index (doa10∆): 2.04 ± 0.087
- protein stability index (pdr5∆): 2.56 ± 0.085
- protein stability index (san1∆): 3.29 ± 0.087
- protein stability index (ubr1∆): 2.21 ± 0.073

Sequence: PQENDLESKMSEVGDAF [SMC3]
- protein stability index (doa10∆): 2.73 ± 0.2
- protein stability index (pdr5∆): 3.36 ± 0.2
- protein stability index (san1∆): 3.43 ± 0.11
- protein stability index (ubr1∆): 2.98 ± 0.22

Sequence: MFGIRSGNNNGGFTNLT [YDL088C/ASM4]
- protein stability index (doa10∆): 3.23 ± 0.085
- protein stability index (pdr5∆): 3.41 ± 0.059
- protein stability index (san1∆): 3.19 ± 0.054
- protein stability index (ubr1∆): 3.4 ± 0.044

Sequence: KRFNIGADPNYRTYSER [RPR2]
- protein stability index (doa10∆): 3.08 ± 0.15
- protein stability index (pdr5∆): 3.4 ± 0.14
- protein stability index (san1∆): 2.89 ± 0.28
- protein stability index (ubr1∆): 3.35 ± 0.11

Sequence: DHKFPIRENKVTYSRVS [BRN1]
- protein stability index (doa10∆): 2.75 ± 0.13
- protein stability index (pdr5∆): 2.9 ± 0.11
- protein stability index (san1∆): 3.01 ± 0.097
- protein stability index (ubr1∆): 2.66 ± 0.087

Sequence: GRIRTTREDVSPHYNSQ [SSN3]
- protein stability index (doa10∆): 1.81 ± 0.067
- protein stability index (pdr5∆): 2.02 ± 0.091
- protein stability index (san1∆): 1.89 ± 0.07
- protein stability index (ubr1∆): 1.73 ± 0.11

Sequence: PQSAPNQMGMGTNNGMS [YOR098C/NUP1]
- protein stability index (doa10∆): 3.4 ± 0.12
- protein stability index (pdr5∆): 3.14 ± 0.13
- protein stability index (san1∆): 3.29 ± 0.098
- protein stability index (ubr1∆): 3.31 ± 0.096

Sequence: DIFGDSELFDEWFEQNN [ISW2]
- protein stability index (doa10∆): 2.36 ± 0.069
- protein stability index (pdr5∆): 2.49 ± 0.072
- protein stability index (san1∆): 1.31 ± 0.15
- protein stability index (ubr1∆): 1.63 ± 0.056

Sequence: TPAEMSRPATTTRNGFM [FAS2]
- protein stability index (doa10∆): 2.35 ± 0.038
- protein stability index (pdr5∆): 2.57 ± 0.041
- protein stability index (san1∆): 2.52 ± 0.05
- protein stability index (ubr1∆): 2.52 ± 0.042

Sequence: AENQTGESTVESEKLVT [RPC82]
- protein stability index (doa10∆): 3.17 ± 0.089
- protein stability index (pdr5∆): 3.29 ± 0.11
- protein stability index (san1∆): 3.15 ± 0.11
- protein stability index (ubr1∆): 3.45 ± 0.29

Sequence: PDFKPWEHTAAEDQILA [SRB8]
- protein stability index (doa10∆): 2.83 ± 0.12
- protein stability index (pdr5∆): 2.95 ± 0.12
- protein stability index (san1∆): 3.03 ± 0.075
- protein stability index (ubr1∆): 3.02 ± 0.091

Sequence: LPILPIQRLRLLREKQR [YOR098C/NUP1]
- protein stability index (doa10∆): 2.09 ± 0.086
- protein stability index (pdr5∆): 1.55 ± 0.062
- protein stability index (san1∆): 1.17 ± 0.25
- protein stability index (ubr1∆): 2.02 ± 0.097

Sequence: RNSPFWWTNSHHDGKLW [PRP8]
- protein stability index (doa10∆): 2.55 ± 0.069
- protein stability index (pdr5∆): 2.85 ± 0.06
- protein stability index (san1∆): 2.68 ± 0.041
- protein stability index (ubr1∆): 2.78 ± 0.049

Sequence: MVVNGPIPDARNAALRA [SCL1]
- protein stability index (doa10∆): 2.38 ± 0.14
- protein stability index (pdr5∆): 2.72 ± 0.11
- protein stability index (san1∆): 2.36 ± 0.13
- protein stability index (ubr1∆): 2.35 ± 0.091

Sequence: NVTSFMPFWKFFMKNFP [SRB8]
- protein stability index (doa10∆): 1.47 ± 0.053
- protein stability index (pdr5∆): 1.63 ± 0.046
- protein stability index (san1∆): 1.43 ± 0.068
- protein stability index (ubr1∆): 1.35 ± 0.041

Sequence: AFSYEQAQLRIDDKTQN [DIS3]
- protein stability index (doa10∆): 3.32 ± 0.21
- protein stability index (pdr5∆): 2.81 ± 0.14
- protein stability index (san1∆): 2.87 ± 0.12
- protein stability index (ubr1∆): 2.25 ± 0.24

Sequence: LRLLEVTDDDRLWLKKV [POP8]
- protein stability index (doa10∆): 1.36 ± 0.061
- protein stability index (pdr5∆): 1.68 ± 0.072
- protein stability index (san1∆): 1.35 ± 0.095
- protein stability index (ubr1∆): 1.61 ± 0.071

Sequence: SAIVNEDGLLEGLDELP [SOH1]
- protein stability index (doa10∆): 2.95 ± 0.14
- protein stability index (pdr5∆): 3.24 ± 0.082
- protein stability index (san1∆): 2.78 ± 0.15
- protein stability index (ubr1∆): 2.8 ± 0.12

Sequence: DIEFINSLLTIVWRFIS [RPC34]
- protein stability index (pdr5∆): 2.91 ± 0.23
- protein stability index (san1∆): 2.51 ± 0.21
- protein stability index (ubr1∆): 2.12 ± 0.14

Sequence: LLTAKHGMTLRESFEDN [RPO21]
- protein stability index (doa10∆): 2.96 ± 0.13
- protein stability index (pdr5∆): 2.56 ± 0.087
- protein stability index (san1∆): 2.6 ± 0.086
- protein stability index (ubr1∆): 1.55 ± 0.092

Sequence: LQFKSIREIDVAGGKKA [RPS7A]
- protein stability index (doa10∆): 1.45 ± 0.14
- protein stability index (pdr5∆): 1.49 ± 0.11
- protein stability index (ubr1∆): 1.21 ± 0.077

Sequence: HECRLRDMTYSAPIYVD [RET1]
- protein stability index (doa10∆): 2.04 ± 0.087
- protein stability index (pdr5∆): 1.67 ± 0.099
- protein stability index (san1∆): 2.01 ± 0.21
- protein stability index (ubr1∆): 1.91 ± 0.061

Sequence: TPMDESSYDLLFNESFI [SRP72]
- protein stability index (doa10∆): 3.07 ± 0.1
- protein stability index (pdr5∆): 2.98 ± 0.1
- protein stability index (san1∆): 2.7 ± 0.1
- protein stability index (ubr1∆): 3.12 ± 0.052

Sequence: DADKLSFNCENFFQAPQ [YML031W/NDC1]
- protein stability index (doa10∆): 2.37 ± 0.08
- protein stability index (pdr5∆): 2.15 ± 0.058
- protein stability index (san1∆): 2.36 ± 0.06
- protein stability index (ubr1∆): 2.3 ± 0.058

Sequence: VTLRKSLYTNTSRKALE [RPL3]
- protein stability index (doa10∆): 2.66 ± 0.069
- protein stability index (pdr5∆): 2.26 ± 0.059
- protein stability index (san1∆): 1.78 ± 0.078
- protein stability index (ubr1∆): 1.78 ± 0.072

Sequence: RDGGLRLGEMERDCVIA [RET1]
- protein stability index (doa10∆): 3.15 ± 0.18
- protein stability index (pdr5∆): 3.3 ± 0.12
- protein stability index (san1∆): 2.54 ± 0.13
- protein stability index (ubr1∆): 3.34 ± 0.095

Sequence: NLLQISAAELERLDKDK [SNF5]
- protein stability index (doa10∆): 2.5 ± 0.12
- protein stability index (pdr5∆): 2.89 ± 0.13
- protein stability index (san1∆): 2.91 ± 0.18

Sequence: QFKTTIKDTANDNDITV [UBP6]
- protein stability index (doa10∆): 2.45 ± 0.11
- protein stability index (pdr5∆): 2.09 ± 0.074
- protein stability index (san1∆): 2.19 ± 0.084
- protein stability index (ubr1∆): 1.67 ± 0.041

Sequence: SPTESYSDIGGLESQIQ [RPT2]
- protein stability index (doa10∆): 3.3 ± 0.14
- protein stability index (pdr5∆): 3.53 ± 0.14
- protein stability index (san1∆): 3.41 ± 0.06
- protein stability index (ubr1∆): 3.29 ± 0.076

Sequence: ATPFRQWFEAHYGQTLG [RPS8A]
- protein stability index (doa10∆): 2.436 ± 0.022
- protein stability index (pdr5∆): 2.787 ± 0.024
- protein stability index (san1∆): 2.7 ± 0.021
- protein stability index (ubr1∆): 2.573 ± 0.019

Sequence: AEFILKNRSTIFWGIRL [BRR2]
- protein stability index (doa10∆): 2.73 ± 0.056
- protein stability index (pdr5∆): 1.93 ± 0.063
- protein stability index (san1∆): 1.52 ± 0.089
- protein stability index (ubr1∆): 1.77 ± 0.048

Sequence: DPEEVEQQVAEEATTEE [RPS0A]
- protein stability index (doa10∆): 3.3 ± 0.086
- protein stability index (pdr5∆): 3.33 ± 0.097
- protein stability index (san1∆): 3.1 ± 0.077
- protein stability index (ubr1∆): 3.56 ± 0.077

From the supplement of paper PMC9732359
